Target: the molecule itself
Experiment: non-reducing SDS-PAGE and western blot; culture supernatants of HEK293T cells transfected with a p19 expression vector, western blot under non-reducing conditions

B1: mouse IL-23 p19 from HEK293T cells transfected with a p19 expression vector (vector not named) (natural protein, UniProt Q9EQ14 22-196, looked up)
chain: VPRSSSPDWAQCQQLSRNLCMLAWNAHAPAGHMNLLREEEDEETKNNVPRIQCEDGCDPQGLKDNSQFCLQRIRQGLAFYKHLLDSDIFKGEPALLPDSPMEQLHTSLLGLSQLLQPEDHPRETQQMPSLSSSQQWQRPLLRSKILRSLQAFLAIAARVFAHGAATLTEPLVPTA
notes: Interleukin-23 subunit alpha (p19), mouse; source: HEK293T, transfected, in culture supernatant
stoichiometry N: 2

Source: paper PMC7933155, “IL-23p19 and CD5 antigen-like form a possible novel heterodimeric cytokine and contribute to experimental autoimmune encephalomyelitis development” (Scientific Reports, 2021)
